B1: TFE3 (parent)
chain: ELPNIKREISETEAKALLKERQKK
B2: FUT8 (parent)
chain: YPSYKVREKIETVKYPTYPEAEK

Variants of: B1
Assay: protein stability index of a GFP-peptide fusion (GPS, HEK-293T) (PSI 1-6); higher = more stable
Conditions: c terminus: a fixed tail appended
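Also: lentivirally expressed fusions sorted by FACS into six bins by GFP to DsRed ratio, PSI derived from sequencing read proportions per bin multiplied by bin number.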

Question: For ELPNIKREISETEAKALLKERQKS, which protein stability index is on record?
Answer: 2.28

Question: For ELPNIKREISETEAKALLKERQKR, which protein stability index is on record?
Answer: 2.15

Question: For ELPNIKREISETEAKALLKERQKP, which protein stability index is on record?
Answer: 2.17

Question: With ELPNIKREISETEAKALLKERQKC as the variant, how does the protein stability index read?
Answer: 2.71

Question: With ELPNIKREISETEAKALLKERQKT as the variant, how does the protein stability index read?
Answer: 2.79

Question: For ELPNIKREISETEAKALLKERQKF, which protein stability index is on record?
Answer: 2.03

Question: Which protein stability index does the source give for ELPNIKREISETEAKALLKERQKV here?
Answer: 2.96

Question: For ELPNIKREISETEAKALLKERQKH, which protein stability index is on record?
Answer: 2.2

Question: Which protein stability index does the source give for ELPNIKREISETEAKALLKERQKM here?
Answer: 2.19

Question: With ELPNIKREISETEAKALLKERQKQ as the variant, how does the protein stability index read?
Answer: 2.84

Question: For ELPNIKREISETEAKALLKERQKN, which protein stability index is on record?
Answer: 3.05

Question: With ELPNIKREISETEAKALLKERQKL as the variant, how does the protein stability index read?
Answer: 2.53

Question: With ELPNIKREISETEAKALLKERQKA as the variant, how does the protein stability index read?
Answer: 2.46

Question: For ELPNIKREISETEAKALLKERQKD, which protein stability index is on record?
Answer: 2.91

Question: Which protein stability index does the source give for ELPNIKREISETEAKALLKERQKI here?
Answer: 2.69

Question: Which protein stability index does the source give for ELPNIKREISETEAKALLKERQKY here?
Answer: 2.69

Question: Which protein stability index does the source give for ELPNIKREISETEAKALLKERQKG here?
Answer: 2.76

Question: Which protein stability index does the source give for ELPNIKREISETEAKALLKERQKE here?
Answer: 3.37

Question: Which protein stability index does the source give for ELPNIKREISETEAKALLKERQKW here?
Answer: 2.44

Question: For ELPNIKREISETEAKALLKERQSK, which protein stability index is on record?
Answer: 2.8

Question: For ELPNIKREISETEAKALLKERQLK, which protein stability index is on record?
Answer: 2.91

Question: Which protein stability index does the source give for ELPNIKREISETEAKALLKERQFK here?
Answer: 2.36

Question: With ELPNIKREISETEAKALLKERQTK as the variant, how does the protein stability index read?
Answer: 2.86

Question: For ELPNIKREISETEAKALLKERQEK, which protein stability index is on record?
Answer: 2.64

Question: Which protein stability index does the source give for ELPNIKREISETEAKALLKERQIK here?
Answer: 2.34

Question: With ELPNIKREISETEAKALLKERQQK as the variant, how does the protein stability index read?
Answer: 2.45

Question: For ELPNIKREISETEAKALLKERQNK, which protein stability index is on record?
Answer: 2.85

Question: With ELPNIKREISETEAKALLKERQMK as the variant, how does the protein stability index read?
Answer: 2.4

Question: For ELPNIKREISETEAKALLKERQHK, which protein stability index is on record?
Answer: 2.44

Question: Which protein stability index does the source give for ELPNIKREISETEAKALLKERQWK here?
Answer: 2.36

Question: With ELPNIKREISETEAKALLKERQRK as the variant, how does the protein stability index read?
Answer: 2.78

Question: Which protein stability index does the source give for ELPNIKREISETEAKALLKERQGK here?
Answer: 2.42

Question: Which protein stability index does the source give for ELPNIKREISETEAKALLKERQVK here?
Answer: 2.61

Question: Which protein stability index does the source give for ELPNIKREISETEAKALLKERQPK here?
Answer: 2.35

Question: Which protein stability index does the source give for ELPNIKREISETEAKALLKERQYK here?
Answer: 2.1

Variants of: B2
Assay: as above
Conditions: c terminus: native

Question: Which protein stability index does the source give for YPSYAVREKIETVKYPTYPEAEK here?
Answer: 3.92

Question: For YPSYYVREKIETVKYPTYPEAEK, which protein stability index is on record?
Answer: 3.62

Question: With YPSYIVREKIETVKYPTYPEAEK as the variant, how does the protein stability index read?
Answer: 4.45

Question: With YPSYGVREKIETVKYPTYPEAEK as the variant, how does the protein stability index read?
Answer: 4.29

Question: Which protein stability index does the source give for YPSYPVREKIETVKYPTYPEAEK here?
Answer: 4.61

Question: With YPSYNVREKIETVKYPTYPEAEK as the variant, how does the protein stability index read?
Answer: 4.81

Question: Which protein stability index does the source give for YPSYRVREKIETVKYPTYPEAEK here?
Answer: 4.32

Question: With YPSYEVREKIETVKYPTYPEAEK as the variant, how does the protein stability index read?
Answer: 5.15

Question: Which protein stability index does the source give for YPSYFVREKIETVKYPTYPEAEK here?
Answer: 2.91

Question: With YPSYHVREKIETVKYPTYPEAEK as the variant, how does the protein stability index read?
Answer: 4.34

Question: Which protein stability index does the source give for YPSYDVREKIETVKYPTYPEAEK here?
Answer: 4.72

Question: For YPSYQVREKIETVKYPTYPEAEK, which protein stability index is on record?
Answer: 4.68

Question: For YPSYLVREKIETVKYPTYPEAEK, which protein stability index is on record?
Answer: 4.12

Question: For YPSYMVREKIETVKYPTYPEAEK, which protein stability index is on record?
Answer: 4.45

Question: With YPSYWVREKIETVKYPTYPEAEK as the variant, how does the protein stability index read?
Answer: 2.49

Question: For YPSYTVREKIETVKYPTYPEAEK, which protein stability index is on record?
Answer: 4.6

Question: For YPSYVVREKIETVKYPTYPEAEK, which protein stability index is on record?
Answer: 4.16

Question: Which protein stability index does the source give for YPSYCVREKIETVKYPTYPEAEK here?
Answer: 4.2

Question: For YPSYSVREKIETVKYPTYPEAEK, which protein stability index is on record?
Answer: 4.54

Question: With YPSQKVREKIETVKYPTYPEAEK as the variant, how does the protein stability index read?
Answer: 4.52

Question: With YPSWKVREKIETVKYPTYPEAEK as the variant, how does the protein stability index read?
Answer: 3.66

Question: With YPSKKVREKIETVKYPTYPEAEK as the variant, how does the protein stability index read?
Answer: 5.03

Question: For YPSRKVREKIETVKYPTYPEAEK, which protein stability index is on record?
Answer: 4.29

Question: With YPSGKVREKIETVKYPTYPEAEK as the variant, how does the protein stability index read?
Answer: 5.38

Question: With YPSNKVREKIETVKYPTYPEAEK as the variant, how does the protein stability index read?
Answer: 4.47

Question: For YPSPKVREKIETVKYPTYPEAEK, which protein stability index is on record?
Answer: 5.02

Question: With YPSDKVREKIETVKYPTYPEAEK as the variant, how does the protein stability index read?
Answer: 4.57

Question: For YPSMKVREKIETVKYPTYPEAEK, which protein stability index is on record?
Answer: 4.88

Question: Which protein stability index does the source give for YPSCKVREKIETVKYPTYPEAEK here?
Answer: 4.13

Question: With YPSIKVREKIETVKYPTYPEAEK as the variant, how does the protein stability index read?
Answer: 4.16

Question: With YPSFKVREKIETVKYPTYPEAEK as the variant, how does the protein stability index read?
Answer: 4.64

Question: With YPSVKVREKIETVKYPTYPEAEK as the variant, how does the protein stability index read?
Answer: 4.52

Question: For YPSEKVREKIETVKYPTYPEAEK, which protein stability index is on record?
Answer: 4

Question: With YPSLKVREKIETVKYPTYPEAEK as the variant, how does the protein stability index read?
Answer: 4.68

Question: For YPSSKVREKIETVKYPTYPEAEK, which protein stability index is on record?
Answer: 4.59

Question: With YPSHKVREKIETVKYPTYPEAEK as the variant, how does the protein stability index read?
Answer: 4.93

Question: With YPSTKVREKIETVKYPTYPEAEK as the variant, how does the protein stability index read?
Answer: 4.91

Question: For YPSAKVREKIETVKYPTYPEAEK, which protein stability index is on record?
Answer: 4.86

Question: Which protein stability index does the source give for YFSYKVREKIETVKYPTYPEAEK here?
Answer: 3.51

Question: Which protein stability index does the source give for YESYKVREKIETVKYPTYPEAEK here?
Answer: 4.52

Question: Which protein stability index does the source give for YASYKVREKIETVKYPTYPEAEK here?
Answer: 3.58

Question: For YHSYKVREKIETVKYPTYPEAEK, which protein stability index is on record?
Answer: 3.01

Question: With YRSYKVREKIETVKYPTYPEAEK as the variant, how does the protein stability index read?
Answer: 4.76

Question: With YCSYKVREKIETVKYPTYPEAEK as the variant, how does the protein stability index read?
Answer: 3.11

Question: For YVSYKVREKIETVKYPTYPEAEK, which protein stability index is on record?
Answer: 2.75

Question: With YGSYKVREKIETVKYPTYPEAEK as the variant, how does the protein stability index read?
Answer: 4.05

Question: Which protein stability index does the source give for YNSYKVREKIETVKYPTYPEAEK here?
Answer: 3.9

Question: For YYSYKVREKIETVKYPTYPEAEK, which protein stability index is on record?
Answer: 3.73

Question: With YISYKVREKIETVKYPTYPEAEK as the variant, how does the protein stability index read?
Answer: 2.91

Question: For YLSYKVREKIETVKYPTYPEAEK, which protein stability index is on record?
Answer: 3.84

Question: Which protein stability index does the source give for YDSYKVREKIETVKYPTYPEAEK here?
Answer: 4.48

Question: For YTSYKVREKIETVKYPTYPEAEK, which protein stability index is on record?
Answer: 3.35

Question: With YWSYKVREKIETVKYPTYPEAEK as the variant, how does the protein stability index read?
Answer: 3.32

Question: With YKSYKVREKIETVKYPTYPEAEK as the variant, how does the protein stability index read?
Answer: 4.35

Question: Which protein stability index does the source give for YMSYKVREKIETVKYPTYPEAEK here?
Answer: 3.58

Question: With YSSYKVREKIETVKYPTYPEAEK as the variant, how does the protein stability index read?
Answer: 4.78

Question: Which protein stability index does the source give for YQSYKVREKIETVKYPTYPEAEK here?
Answer: 2.5

Question: Which protein stability index does the source give for YPSYKVQEKIETVKYPTYPEAEK here?
Answer: 4.45

Question: Which protein stability index does the source give for YPSYKVEEKIETVKYPTYPEAEK here?
Answer: 4.7

Question: For YPSYKVHEKIETVKYPTYPEAEK, which protein stability index is on record?
Answer: 3.84

Question: For YPSYKVNEKIETVKYPTYPEAEK, which protein stability index is on record?
Answer: 4.59

From the supplement of paper PMC10567573
